Measurements taken from patent US10301203B2, “Chloroperoxidase-catalyzed degradation of pharmaceutical pollutants in wastewater” (THE FLORIDA INTERNATIONAL UNIVERSITY BOARD OF TRUSTEES, priority 2017, dated 2019).

Substrate: NC(=O)N1c2ccccc2C=Cc2ccccc21
Test: CPO-catalyzed degradation of carbamazepine, kinetic parameters (UV monitoring at 285 nm, CBZ concentration varied)
Assay type: biochemical, Caldariomyces fumago
Details: other: CBZ as substrate, 0.02 to 0.11 mM, CPO isolated from C. fumago (5 nM), 100 mM KH2PO4 buffer, 20 mM KCl, pH 2.75, H2O2 0.35 mM or 0.07 mM, absorbance at 285 nm, 0.1 to 0.2 mi
From the text: Chloroperoxidase (CPO) is a heme-containing glycoprotein secreted by the fungus Caldariomyces fumago.
The isolation of CPO proposed in this study was a modification of the protocol reported by Morris and Hager (1966), using acetone instead of ethanol as the fractionation solvent. CPO with Rz=1.45 was applied in all reactions (Rz is the purity standard, defined as A398/A280=1.44 for a pure enzyme). All solvents were HPLC grade or Optima® LC/MS grade, purchased from Thermo Fisher Scientific Inc. (Waltham, Mass., USA). Water was produced using a Milli-Q® Biocel™ Ultra-Pure water purification system equipped with 0.22 μM membrane filter cartridge (EMD Millipore, Billerica, Mass., USA), and an organic removal cartridge (Evoqua Water Technologies, Lowell, Mass., USA).
The rate was calculated by monitoring absorbance at 285 nm from 0.1 to 0.2 min. The reaction was carried out in 100 mM KH2PO4 buffer with 20 mM KCl at pH 2.75, with the concentration of CBZ varying from 0.02 to 0.11 mM. UV monitoring was started immediately after adding 0.35 mM H2O2.
All experiments were triplicated and data reported were mean values of three independent measurements with standard deviation.
1 min. after addition of 5 nM CPO, the 285 nm absorption decreased, and stopped […] at 4 min. The 285 nm wavelength was used to measure kinetic parameters of CBZ degradation catalyzed by CPO.

B1: chloroperoxidase (CPO) (Leptoxyphium fumago) (protein)
chain: QEPGSGIGYPYDNNTLPYVAPGPTDSRAPCPALNALANHGYIPHDGRAISRETLQNAFLNHMGIANSVIELALTNAFVVCEYVTGSDCGDSLVNLTLLAEPHAFEHDHSFSRKDYKQGVANSNDFIDNRNFDAETFQTSLDVVAGKTHFDYADMNEIRLQRESLSNELDFPGWFTESKPIQNVESGFIFALVSDFNLPDNDENPLVRIDWWKYWFTNESFPYHLGWHPPSPAREIEFVTSASSAVLAASVTSTPSSLPSGAIGPGAEAVPLSFASTMTPFLLATNAPYYAQDPTLGPND
notes: heme-containing glycoprotein secreted by the fungus Caldariomyces fumago; made in house; host or cells: Caldariomyces fumago (natural producer, not recombinant)
Q: B1 was tested. Which Km did it give?
A: 73.35 µM
